The labels stand for the following.
B1: SEMA7A (protein, UniProt O75326 45-648, looked up)
Semaphorin-7A: QGHLRSGPRIFAVWKGHVGQDRVDFGQTEPHTVLFHEPGSSSVWVGGRGKVYLFDFPEGKNASVRTVNIGSTKGSCLDKRDCENYITLLERRSEGLLACGTNARHPSCWNLVNGTVVPLGEMRGYAPFSPDENSLVLFEGDEVYSTIRKQEYNGKIPRFRRIRGESELYTSDTVMQNPQFIKATIVHQDQAYDDKIYYFFREDNPDKNPEAPLNVSRVAQLCRGDQGGESSLSVSKWNTFLKAMLVCSDAATNKNFNRLQDVFLLPDPSGQWRDTRVYGVFSNPWNYSAVCVYSLGDIDKVFRTSSLKGYHSSLPNPRPGKCLPDQQPIPTETFQVADRHPEVAQRVEPMGPLKTPLFHSKYHYQKVAVHRMQASHGETFHVLYLTTDRGTIHKVVEPGEQEHSFAFNIMEIQPFRRAAAIQTMSLDAERRKLYVSSQWEVSQVPLDLCEVYGGGCHGCLMSRDPYCGWDQGRCISIYSSERSVLQSINPAEPHKECPNPKPDKAPLQKVSLAPNSRYYLSCPMESRHATYSWRHKENVEQSCEPGHQSPNCILFIENLTAQQYGHYFCEAQEGSYFREAQHWQLLPEDGIMAEHLLGHACALA
B2: CPM (protein, UniProt P14384 18-423, looked up)
Carboxypeptidase M: LDFNYHRQEGMEAFLKTVAQNYSSVTHLHSIGKSVKGRNLWVLVVGRFPKEHRIGIPEFKYVANMHGDETVGRELLLHLIDYLVTSDGKDPEITNLINSTRIHIMPSMNPDGFEAVKKPDCYYSIGRENYNQYDLNRNFPDAFEYNNVSRQPETVAVMKWLKTETFVLSANLHGGALVASYPFDNGVQATGALYSRSLTPDDDVFQYLAHTYASRNPNMKKGDECKNKMNFPNGVTNGYSWYPLQGGMQDYNYIWAQCFEITLELSCCKYPREEKLPSFWNNNKASLIEYIKQVHLGVKGQVFDQNGNPLPNVIVEVQDRKHICPYRTNKYGEYYLLLLPGSYIINVTVPGHDPHITKVIIPEKSQNFSALKKDILLPFQGQLDSIPVSNPSCPMIPLYRNLPDHS
B3: DNER (protein, UniProt Q8NFT8 35-737, looked up)
Delta and Notch-like …: NPVPAAPLSAPGPCAAQPCRNGGVCTSRPEPDPQHPAPAGEPGYSCTCPAGISGANCQLVADPCASNPCHHGNCSSSSSSSSDGYLCICNEGYEGPNCEQALPSLPATGWTESMAPRQLQPVPATQEPDKILPRSQATVTLPTWQPKTGQKVVEMKWDQVEVIPDIACGNASSNSSAGGRLVSFEVPQNTSVKIRQDATASLILLWKVTATGFQQCSLIDGRSVTPLQASGGLVLLEEMLALGNNHFIGFVNDSVTKSIVALRLTLVVKVSTCVPGESHANDLECSGKGKCTTKPSEATFSCTCEEQYVGTFCEEYDACQRKPCQNNASCIDANEKQDGSNFTCVCLPGYTGELCQSKIDYCILDPCRNGATCISSLSGFTCQCPEGYFGSACEEKVDPCASSPCQNNGTCYVDGVHFTCNCSPGFTGPTCAQLIDFCALSPCAHGTCRSVGTSYKCLCDPGYHGLYCEEEYNECLSAPCLNAATCRDLVNGYECVCLAEYKGTHCELYKDPCANVSCLNGATCDSDGLNGTCICAPGFTGEECDIDINECDSNPCHHGGSCLDQPNGYNCHCPHGWVGANCEIHLQWKSGHMAESLTNMPRHSLYIIIGALCVAFILMLIILIVGICRISRIEYQGSSRPAYEEFYNCRSIDSEFSNAIASIRHARFGKKSRPAMYDVSPIAYEDYSPDDKPLVTLIKTKDL
B4: CEACAM8 (protein, UniProt P31997 35-320, looked up)
Cell adhesion molecule CEACAM8: QLTIEAVPSNAAEGKEVLLLVHNLPQDPRGYNWYKGETVDANRRIIGYVISNQQITPGPAYSNRETIYPNASLLMRNVTRNDTGSYTLQVIKLNLMSEEVTGQFSVHPETPKPSISSNNSNPVEDKDAVAFTCEPETQNTTYLWWVNGQSLPVSPRLQLSNGNRTLTLLSVTRNDVGPYECEIQNPASANFSDPVTLNVLYGPDAPTISPSDTYYHAGVNLNLSCHAASNPPSQYSWSVNGTFQQYTQKLFIPNITTKNSGSYACHTTNSATGRNRTTVRMITVSD
B5: CNTNAP2 (protein, UniProt Q9UHC6 28-1331, looked up)
Contactin-associated …: APSTSQKCDEPLVSGLPHVAFSSSSSISGSYSPGYAKINKRGGAGGWSPSDSDHYQWLQVDFGNRKQISAIATQGRYSSSDWVTQYRMLYSDTGRNWKPYHQDGNIWAFPGNINSDGVVRHELQHPIIARYVRIVPLDWNGEGRIGLRIEVYGCSYWADVINFDGHVVLPYRFRNKKMKTLKDVIALNFKTSESEGVILHGEGQQGDYITLELKKAKLVLSLNLGSNQLGPIYGHTSVMTGSLLDDHHWHSVVIERQGRSINLTLDRSMQHFRTNGEFDYLDLDYEITFGGIPFSGKPSSSSRKNFKGCMESINYNGVNITDLARRKKLEPSNVGNLSFSCVEPYTVPVFFNATSYLEVPGRLNQDLFSVSFQFRTWNPNGLLVFSHFADNLGNVEIDLTESKVGVHINITQTKMSQIDISSGSGLNDGQWHEVRFLAKENFAILTIDGDEASAVRTNSPLQVKTGEKYFFGGFLNQMNNSSHSVLQPSFQGCMQLIQVDDQLVNLYEVAQRKPGSFANVSIDMCAIIDRCVPNHCEHGGKCSQTWDSFKCTCDETGYSGATCHNSIYEPSCEAYKHLGQTSNYYWIDPDGSGPLGPLKVYCNMTEDKVWTIVSHDLQMQTPVVGYNPEKYSVTQLVYSASMDQISAITDSAEYCEQYVSYFCKMSRLLNTPDGSPYTWWVGKANEKHYYWGGSGPGIQKCACGIERNCTDPKYYCNCDADYKQWRKDAGFLSYKDHLPVSQVVVGDTDRQGSEAKLSVGPLRCQGDRNYWNAASFPNPSSYLHFSTFQGETSADISFYFKTLTPWGVFLENMGKEDFIKLELKSATEVSFSFDVGNGPVEIVVRSPTPLNDDQWHRVTAERNVKQASLQVDRLPQQIRKAPTEGHTRLELYSQLFVGGAGGQQGFLGCIRSLRMNGVTLDLEERAKVTSGFISGCSGHCTSYGTNCENGGKCLERYHGYSCDCSNTAYDGTFCNKDVGAFFEEGMWLRYNFQAPATNARDSSSRVDNAPDQQNSHPDLAQEEIRFSFSTTKAPCILLYISSFTTDFLAVLVKPTGSLQIRYNLGGTREPYNIDVDHRNMANGQPHSVNITRHEKTIFLKLDHYPSVSYHLPSSSDTLFNSPKSLFLGKVIETGKIDQEIHKYNTPGFTGCLSRVQFNQIAPLKAALRQTNASAHVHIQGELVESNCGASPLTLSPMSSATDPWHLDHLDSASADFPYNPGQGQAIRNGVNRNSAIIGGVIAVVIFTILCTLVFLIRYMFRHKGTYHTNEAKGAESAESADAAIMNNDPNFTETIDESKKEWLI
B6: FASLG (protein, UniProt P48023 130-281, looked up)
Tumor necrosis factor ligand …: QIGHPSPPPEKKELRKVAHLTGKSNSRSMPLEWEDTYGIVLLSGVKYKKGGLVINETGLYFVYSKVYFRGQSCNNLPLSHKVYMRNSKYPQDLVMMEGKMMSYCTTGQMWARSSYLGAVFNLTSADHLYVNVSELSLVNFEESQTFFGLYKL
B7: VWC2 (protein, UniProt Q2TAL6 28-325, looked up)
Brorin: SPSIPLEKLAQAPEQPGQEKREHASRDGPGRVNELGRPARDEGGSGRDWKSKSGRGLAGREPWSKLKQAWVSQGGGAKAGDLQVRPRGDTPQAEALAAAAQDAIGPELAPTPEPPEEYVYPDYRGKGCVDESGFVYAIGEKFAPGPSACPCLCTEEGPLCAQPECPRLHPRCIHVDTSQCCPQCKERKNYCEFRGKTYQTLEEFVVSPCERCRCEANGEVLCTVSACPQTECVDPVYEPDQCCPICKNGPNCFAETAVIPAGREVKTDECTICHCTYEEGTWRIERQAMCTRHECRQM
B8: FCRL6 (protein, UniProt Q6DN72 20-434, looked up)
Fc receptor-like protein 6: LYLQAWPNPVFEGDALTLRCQGWKNTPLSQVKFYRDGKFLHFSKENQTLSMGAATVQSRGQYSCSGQVMYIPQTFTQTSETAMVQVQELFPPPVLSAIPSPEPREGSLVTLRCQTKLHPLRSALRLLFSFHKDGHTLQDRGPHPELCIPGAKEGDSGLYWCEVAPEGGQVQKQSPQLEVRVQAPVSRPVLTLHHGPADPAVGDMVQLLCEAQRGSPPILYSFYLDEKIVGNHSAPCGGTTSLLFPVKSEQDAGNYSCEAENSVSRERSEPKKLSLKGSQVLFTPASNWLVPWLPASLLGLMVIAAALLVYVRSWRKAGPLPSQIPPTAPGGEQCPLYANVHHQKGKDEGVVYSVVHRTSKRSEARSAEFTVGRKDSSIICAEVRCLQPSEVSSTEVNMRSRTLQEPLSDCEEVLC
B9: CLEC4G (protein, UniProt Q6UXB4 1-293, looked up)
C-type lectin domain family 4 …: MDTTRYSKWGGSSEEVPGGPWGRWVHWSRRPLFLALAVLVTTVLWAVILSILLSKASTERAALLDGHDLLRTNASKQTAALGALKEEVGDCHSCCSGTQAQLQTTRAELGEAQAKLMEQESALRELRERVTQGLAEAGRGREDVRTELFRALEAVRLQNNSCEPCPTSWLSFEGSCYFFSVPKTTWAAAQDHCADASAHLVIVGGLDEQGFLTRNTRGRGYWLGLRAVRHLGKVQGYQWVDGVSLSFSHWNQGEPNDAWGRENCVMMLHTGLWNDAPCDSEKDGWICEKRHNC
B10: PRDX3 (protein, UniProt P30048 62-256, looked up)
Thioredoxin-dependent …: APAVTQHAPYFKGTAVVNGEFKDLSLDDFKGKYLVLFFYPLDFTFVCPTEIVAFSDKANEFHDVNCEVVAVSVDSHFSHLAWINTPRKNGGLGHMNIALLSDLTKQISRDYGVLLEGSGLALRGLFIIDPNGVIKHLSVNDLPVGRSVEETLRLVKAFQYVETHGEVCPANWTPDSPTIKPSPAASKEYFQKVNQ
B11: MATN3 (protein, UniProt O15232 29-486, looked up)
Matrilin-3: DPVARPGFRRLETRGPGGSPGRRPSPAAPDGAPASGTSEPGRARGAGVCKSRPLDLVFIIDSSRSVRPLEFTKVKTFVSRIIDTLDIGPADTRVAVVNYASTVKIEFQLQAYTDKQSLKQAVGRITPLSTGTMSGLAIQTAMDEAFTVEAGAREPSSNIPKVAIIVTDGRPQDQVNEVAARAQASGIELYAVGVDRADMASLKMMASEPLEEHVFYVETYGVIEKLSSRFQETFCALDPCVLGTHQCQHVCISDGEGKHHCECSQGYTLNADKKTCSALDRCALNTHGCEHICVNDRSGSYHCECYEGYTLNEDRKTCSAQDKCALGTHGCQHICVNDRTGSHHCECYEGYTLNADKKTCSVRDKCALGSHGCQHICVSDGAASYHCDCYPGYTLNEDKKTCSATEEARRLVSTEDACGCEATLAFQDKVSSYLQRLNTKLDDILEKLKINEYGQIHR

The subject of this experiment is plasma proteins. Nature of the experiment: Plasma proteins modulated between baseline and day 28 in responders (CR, VGPR, PR; n = 19), Example 6 (Table 13). It counts as in vivo, human. Conditions: plasma protein (OLINK NPX); responders (CR, VGPR, PR; n = 19); itacitinib 200 mg or 300 mg QD with corticosteroids; day 28 vs baseline. The procedure, abridged: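 Plasma at baseline/screening and day 28 profiled for >1000 proteins by OLINK proximity extension assay, reported as NPX (log2). Steroid-naive and steroid-refractory patients pooled. Paired and unpaired t tests, ANOVA and Pearson correlation applied; significance at P<0.05.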
Turning to B1, the “Fold Change, Decreased Expression from Baseline to Day 28” value (from here on “Fold Change, Decreased Expression”) was −1.1335.

B2: the “Fold Change, Increased Expression from Baseline to Day 28” value (“Fold Change, Increased Expression” for short) stood at 1.1479.

B3: the “Fold Change, Increased Expression” value turned out to be 1.2957.

In the case of B4, the “Fold Change, Decreased Expression” value is recorded as −1.6177.

With B5, the “Fold Change, Decreased Expression” value was −1.3091.

With B6, the “Fold Change, Decreased Expression” value is −1.3614.

Turning to B7, the “Fold Change, Increased Expression” value amounted to 1.3331.

For the molecule B8, the “Fold Change, Decreased Expression” value was −1.3556.

As to B9, the “Fold Change, Decreased Expression” value is listed as −1.1865.

On to B10, for which the “Fold Change, Decreased Expression” value is listed as −1.199.

As for B11, the “Fold Change, Decreased Expression” value is listed as −1.3384.
